Residue numbers refer to the chain shown, from its start. Read-outs that look alike come from different tables or passages of the source.
B1: FE43 (antibody, V domains shown)
VH: QVHLVQSGAEVKKPGSSVRLSCSASGGPFSGFAISWLRQAPGQGLEWLGGISAVFGTATYAQKFQGRVTITADQFTSTSHMDLSRLTYDDTAVYYCARSGGYLPQNNWIDPWGQGTLVIVSS
VL: DIVMTQTPLSLSVTPGQPASISCKSSQSLLHSDGKTYLYWYLQKPGQSPQLLIYEVSNRFSGVPDRFSGSGSGTDFTLKISRVEAEDVGVYYCMQNILLPLTFGGGTKVEIK
B2: FC6 (antibody, V domains shown)
VH: QGQLVQSGAEVKKSGSSVKVSCKTSGGTFNSHAISWVRQAPGQGLEWIGGIIPMFGTTNYAQKLKGRIAITADQLPTTAYLELSSLRSEDTAVYYCARGQRYYYDRDGMDVWGQGTMVTVSS
VL: B1 VL with D1E, K24R, S48P, Y54S, S57F, N96S, I97L, L98Q
B3: FE53 (antibody, V domains shown)
VH: QVQLVQSGAEVKKPGSSVKVSCKASGVTSSNYPITWVRQAPGQGLEWMGGVLPLFGVTNYAQKFQGRVTISADKSTNTAYMELSSLRSEDTAVYYCARGKRPGYCSGGVCSSDYWGQGTLVTVSS
VL: DIQMTQSPSSLSASVGDRVSITCQASQDISRYLNWYQQKPGEAPKLLIYDASNLETGVPSRFSGSGSGTDFTFTISSLQPEDIATYFCQQYGYLPLTFGPGTKVDSK
B4: FB139 (antibody, V domains shown)
VH: QVQLVQSGAEVKKAGSSVKVSCQSSGVTFSMYAVSWVRQAPGQGLEWMGGIIPLFGTTTYAQKFEGRLTITADTSTNMAYLELRSLRSEDTAVYFCARAGTTVTRFNWFDPWGQGTLVTVSS
VL: EVVLTQSPGTLSLSPGQRATLSCRASQSVSSSYLAWYQQKPGQAPRLLIYDASNRATGIPDRFSGSGSGTDFTLTISRLEPEDFAVYYCQQYGSSPYTFGQGTKLEIK

Columns and labels:
[1] = target: recombinant trimeric H5 HA (A/VN/1203/04) (influenza A virus A/VN/1203/04 (H5N1)); assay: competition ELISA on recombinant trimeric H5 HA; competitor C179
[2] = target: H9 HA A/HK/1073/99 (ELISA antigen) (influenza A virus A/HK/1073/99 (H9)); assay: ELISA
[3] = target: H1 HA A/SI/3/06 (ELISA antigen) (influenza A virus A/SI/3/06 (H1)); assay: ELISA
[4] = target: H5 HA A/INDO/5/05 (ELISA antigen) (influenza A virus A/INDO/5/05 (H5N1)); assay: ELISA
[5] = target: H1 HA A/Texas/3/99 (ELISA antigen) (influenza A virus A/Texas/3/99 (H1)); assay: ELISA
[6] = target: recombinant trimeric H5 HA (A/VN/1203/04) (influenza A virus A/VN/1203/04 (H5N1)); assay: ELISA
[7] = target: recombinant trimeric H5 HA (A/VN/1203/04) (influenza A virus A/VN/1203/04 (H5N1)); assay: competition ELISA on recombinant trimeric H5 HA; competitor FLD21
[8] = target: H1 HA A/CA/07/09 (on infectious virus) (influenza A virus A/CA/07/09 (H1N1)); assay: cell-based or functional assay
[9] = target: H5 HA A/VN/1203/04 (on pseudotypes and on infectious virus) (influenza A virus A/VN/1203/04 (H5N1)); assay: cell-based or functional assay
[10] = target: H1 HA A/NJ/76 (on infectious virus) (influenza A virus A/NJ/76 (H1N1)); assay: cell-based or functional assay
[11] = target: H1 HA A/swine/Iowa/31 (on infectious virus) (influenza A virus A/swine/Iowa/31 (H1N1)); assay: cell-based or functional assay
[12] = target: H1 HA A/PR/8/34 (on infectious virus) (influenza A virus A/PR/8/34 (H1N1)) (UniProt P03452); assay: cell-based or functional assay
[13] = target: H5 HA A/HK/213/03 (on pseudotypes) (influenza A virus A/HK/213/03 (H5N1)); assay: cell-based or functional assay
[14] = target: H3 HA A/WY/3/03 (on infectious virus) (influenza A virus A/WY/3/03 (H3N2)); assay: cell-based or functional assay
[15] = target: H1 HA A/CA/07/09 (on infectious virus) (influenza A virus A/CA/07/09 (H1N1)); assay: cell-based or functional assay; remark: listed apart in the source
[16] = target: H5 HA A/VN/1203/04 (on pseudotypes and on infectious virus) (influenza A virus A/VN/1203/04 (H5N1)); assay: cell-based or functional assay; remark: listed apart in the source
[17] = target: H1 HA A/NJ/76 (on infectious virus) (influenza A virus A/NJ/76 (H1N1)); assay: cell-based or functional assay; remark: listed apart in the source
[18] = target: H6 HA A/teal/HK/WN312/97 (on infectious virus) (influenza A virus A/teal/HK/W312/97 (H6N1)); assay: cell-based or functional assay
[19] = target: H1 HA A/SI/3/06 (on infectious virus) (influenza A virus A/SI/3/06 (H1N1)); assay: cell-based or functional assay
[20] = target: H1 HA A/swine/Iowa/31 (on infectious virus) (influenza A virus A/swine/Iowa/31 (H1N1)); assay: cell-based or functional assay; remark: listed apart in the source
[21] = target: H5 HA A/HK/491/97 (on pseudotypes) (influenza A virus A/HK/491/97 (H5N1)); assay: cell-based or functional assay
[22] = target: H1 HA A/NC/20/99 (on infectious virus) (influenza A virus A/NC/20/99 (H1N1)); assay: cell-based or functional assay
[23] = target: H5 HA A/INDO/5/05 (on pseudotypes and on infectious virus) (influenza A virus A/INDO/5/05 (H5N1)); assay: cell-based or functional assay
[24] = target: H5 HA A/Anhui/1/5 (on pseudotypes) (influenza A virus A/Anhui/1/5 (H5N1)); assay: cell-based or functional assay
[25] = target: H1 HA A/PR/8/34 (on infectious virus) (influenza A virus A/PR/8/34 (H1N1)) (UniProt P03452); assay: cell-based or functional assay; remark: listed apart in the source
[26] = target: H5 HA A/WS/Mong/244/05 (on pseudotypes) (influenza A virus A/WS/Mong/244/05 (H5N1)); assay: cell-based or functional assay
[27] = target: H9 HA A/ck/HK/G9/97 (on infectious virus) (influenza A virus A/ck/HK/G9/97 (H9N2)); assay: cell-based or functional assay
[28] = target: H9 HA A/HK/1073/99 (on infectious virus) (influenza A virus A/HK/1073/99 (H9N2)); assay: cell-based or functional assay
[29] = target: H5 HA A/VN/1194/04 (on pseudotypes) (influenza A virus A/VN/1194/04 (H5N1)); assay: cell-based or functional assay
[30] = target: H2 HA A/JP/305/57 (on infectious virus) (influenza A virus A/JP/305/57 (H2N2)) (UniProt P03451); assay: cell-based or functional assay

| Binder | Competition (%) [1] [%] | K50 [2] [µg/mL] | K50 [3] [µg/mL] | K50 [4] [µg/mL] | K50 [5] [µg/mL] | K50 [6] [µg/mL] | Competition (%) [7] [%] | Neutralization of HA-pseudotypes (IC90) [13] [µg/mL] | Neutralization of HA-pseudotypes (IC90) [16] [µg/mL] | Neutralization H1N1 IC90 [19] [µg/mL] | Neutralization of infectious viruses (IC50) [19] [µg/mL] | Neutralization of HA-pseudotypes (IC90) [21] [µg/mL] | Neutralization H1N1 IC90 [22] [µg/mL] | Neutralization of infectious viruses (IC50) [22] [µg/mL] | Neutralization of HA-pseudotypes (IC90) [23] [µg/mL] | Neutralization of HA-pseudotypes (IC90) [24] [µg/mL] | Neutralization of HA-pseudotypes (IC90) [26] [µg/mL] | Neutralization of infectious viruses (IC50) [27] [µg/mL] | Neutralization of infectious viruses (IC50) [28] [µg/mL] | Neutralization of HA-pseudotypes (IC90) [29] [µg/mL] | also measured |
| --- | --- | --- | --- | --- | --- | --- | --- | --- | --- | --- | --- | --- | --- | --- | --- | --- | --- | --- | --- | --- | --- |
| B1 | 100 | 0.307 | 0.206 | 4.54 | 0.013 | 0.029 | < 20 | 0.07 | 0.146 | 6.2 | 9 | 0.053 | 6.2 | 40 | 0.39 | 0.137 | 0.186 | 4 | 50 | 0.061 | Neutralization of infectious viruses (IC50) [8]: 4 µg/mL; Neutralization of infectious viruses (IC50) [9]: > 50 µg/mL; Neutralization of infectious viruses (IC50) [10]: 9 µg/mL; Neutralization of infectious viruses (IC50) [11]: 3 µg/mL; Neutralization of infectious viruses (IC50) [12]: 1.5 µg/mL; Neutralization H3N2 IC50 [14]: > 50 µg/mL; Hemagglutination inhibition titer [15]: < 5; Hemagglutination inhibition titer [16]: < 5; Neutralization H5N1 IC50 [16]: > 50 µg/mL; Hemagglutination inhibition titer [17]: < 5; Neutralization of infectious viruses (IC50) [18]: 20 µg/mL; Hemagglutination inhibition titer [20]: 20; Neutralization of infectious viruses (IC50) [23]: 25 µg/mL; Hemagglutination inhibition titer [25]: < 5; Neutralization of infectious viruses (IC50) [25]: 4 µg/mL; Neutralization H9N2 IC50 [27]: 0.02 µg/mL; Neutralization H5pp IC90 [29]: 0.03 µg/mL |
| B2 | 100 | 0.15 | 1.47 | – | 0.066 | 0.157 | < 20 | 0.077 | 0.096 | 12.5 | 18 | 0.081 | 12.5 | 40 | 0.242 | 0.112 | 0.073 | 9 | 36 | 0.061 | Neutralization of infectious viruses (IC50) [18]: 63 µg/mL; Neutralization of infectious viruses (IC50) [23]: 31 µg/mL; Neutralization of infectious viruses (IC50) [25]: 16 µg/mL; Neutralization H5pp IC90 [29]: 0.04 µg/mL |
| B3 | 100 | 0.014 | 0.375 | 0.084 | 0.015 | 0.015 | < 20 | 0.066 | 0.098 | 6.2 | 6 | 0.046 | 6.2 | 37 | 0.491 | 0.065 | 0.077 | 2 | 8 | 0.008 | Neutralization H3N2 IC50 [14]: > 50 µg/mL; Neutralization H5N1 IC50 [16]: > 50 µg/mL; Neutralization H9N2 IC50 [27]: 0.1 µg/mL; Neutralization H5pp IC90 [29]: 0.008 µg/mL |
| B4 | 100 | 0.066 | 1.38 | 0.163 | 0.06 | 0.033 | < 20 | 0.019 | 0.034 | – | 4 | 0.019 | – | 36 | 0.106 | 0.022 | 0.035 | 6 | 20 | 0.04 | Neutralization of infectious viruses (IC50) [16]: 36 µg/mL; Neutralization of infectious viruses (IC50) [30]: 50 µg/mL; Neutralization of infectious viruses (IC50) [23]: 36 µg/mL; Neutralization of infectious viruses (IC50) [25]: 5 µg/mL |

— patent US20100086555A1
